From the supplement of paper PMC10567573

B1: ETS2 (parent)
chain: TSGKRYVYRFVCDLQNLLGFTPEE

Variants of: B1
Assay: protein stability index of a GFP-peptide fusion (GPS, HEK-293T) (PSI 1-6); higher = more stable
Conditions: c terminus: a fixed tail appended
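Note: lentivirally expressed fusions sorted by FACS into six bins by GFP to DsRed ratio, PSI derived from sequencing read proportions per bin multiplied by bin number.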

Variant	protein stability index
TSGKRYVYRFVCDLQNLLGFIPEE [T21I]	1.76
TSGKRYVYRFVCDLQNLLGFRPEE [T21R]	1.67
TSGKRYVYRFVCDLQNLLGFGPEE [T21G]	1.95
TSGKRYVYRFVCDLQNLLGFKPEE [T21K]	2.25
TSGKRYVYRFVCDLQNLLGFDPEE [T21D]	1.6
TSGKRYVYRFVCDLQNLLGFSPEE [T21S]	2.13
TSGKRYVYRFVCDLQNLLGFFPEE [T21F]	2.02
HSGKRYVYRFVCDLQNLLGFTPEE [T1H]	2.12
ISGKRYVYRFVCDLQNLLGFTPEE [T1I]	2.6
KSGKRYVYRFVCDLQNLLGFTPEE [T1K]	1.66
GSGKRYVYRFVCDLQNLLGFTPEE [T1G]	2.08
CSGKRYVYRFVCDLQNLLGFTPEE [T1C]	1.7
QSGKRYVYRFVCDLQNLLGFTPEE [T1Q]	1.94
PSGKRYVYRFVCDLQNLLGFTPEE [T1P]	1.94
TSVKRYVYRFVCDLQNLLGFTPEE [G3V]	1.86
TSHKRYVYRFVCDLQNLLGFTPEE [G3H]	2.83
TSDKRYVYRFVCDLQNLLGFTPEE [G3D]	3.19
TSLKRYVYRFVCDLQNLLGFTPEE [G3L]	1.65
TSQKRYVYRFVCDLQNLLGFTPEE [G3Q]	2.31
TSNKRYVYRFVCDLQNLLGFTPEE [G3N]	2.77
TSCKRYVYRFVCDLQNLLGFTPEE [G3C]	1.81
TSFKRYVYRFVCDLQNLLGFTPEE [G3F]	2.33
TSAKRYVYRFVCDLQNLLGFTPEE [G3A]	2.96
TSTKRYVYRFVCDLQNLLGFTPEE [G3T]	1.86

Variant	protein stability index
TSRKRYVYRFVCDLQNLLGFTPEE [G3R]	2
TSGKRYVYRFVCDVQNLLGFTPEE [L14V]	2.39
TSGKRYVYRFVCDSQNLLGFTPEE [L14S]	2.77
TSGKRYVYRFVCDDQNLLGFTPEE [L14D]	3.01
TSGKRYVYRFVCDKQNLLGFTPEE [L14K]	3.2
TSGKRYVYRFVCDIQNLLGFTPEE [L14I]	2.41
TSGKRYVYRFVCDWQNLLGFTPEE [L14W]	2.53
TSGKRYVYRFVCDCQNLLGFTPEE [L14C]	2.07
TSGKRYVYRFVCDLQNLFGFTPEE [L18F]	1.84
TSGKRYVYRFVCDLQNLCGFTPEE [L18C]	1.39
TSGKRYVYRFVCDLQNLHGFTPEE [L18H]	1.32
TSGKRYVYRFVCDLQNLMGFTPEE [L18M]	2.07
TSGKRYVYRFVCDLQNLPGFTPEE [L18P]	1.68
TSGKRYVYRFVCDLQNLYGFTPEE [L18Y]	1.74
TSGKRYVYRFVCDLQNLVGFTPEE [L18V]	2.91
TSGKRYVYRFVCDLQNLGGFTPEE [L18G]	1.92
TSGKRNVYRFVCDLQNLLGFTPEE [Y6N]	1.52
TSGKRCVYRFVCDLQNLLGFTPEE [Y6C]	2.26
TSGKRAVYRFVCDLQNLLGFTPEE [Y6A]	1.43
TSGKRIVYRFVCDLQNLLGFTPEE [Y6I]	4.21
TSGKRDVYRFVCDLQNLLGFTPEE [Y6D]	1.52
TSGKRHVYRFVCDLQNLLGFTPEE [Y6H]	2.41
TSGKRQVYRFVCDLQNLLGFTPEE [Y6Q]	1.86
TSGKRFVYRFVCDLQNLLGFTPEE [Y6F]	2.91

Variant	protein stability index
TSGKRYVYRFVCDLQNLLGFTKEE [P22K]	1.83
TSGKRYVYRFVCDLQNLLGFTTEE [P22T]	2.16
TSGKRYVYRFVCDLQNLLGFTGEE [P22G]	1.63
TSGKRYVYRFVCDLQNLLGFTSEE [P22S]	1.8
TSGKRYVYRFVCDLQNLLGFTREE [P22R]	3.16
TSGKRYVYRFVCDLQNLLGFTQEE [P22Q]	2.16
TSGKRYVYRFVCDLQNLLGFTMEE [P22M]	2.35
TSGKRYVYRFVCDLQNLLGFTIEE [P22I]	2.24
TSGKRYVYRFVCDLCNLLGFTPEE [Q15C]	2.23
TSGKRYVYRFVCDLANLLGFTPEE [Q15A]	2.23
TSGKRYVYRFVCDLYNLLGFTPEE [Q15Y]	2.23
TSGKRYVYRFVCDLLNLLGFTPEE [Q15L]	2.44
TSGKRYVYRFVCDLKNLLGFTPEE [Q15K]	2.03
TSGKRYVYRFVCDLSNLLGFTPEE [Q15S]	2.07
TSGKRYVYRFVCDLINLLGFTPEE [Q15I]	2.43
TSGKRYVYRFVCDLGNLLGFTPEE [Q15G]	3.45
TSGKRYVYRFVCDLFNLLGFTPEE [Q15F]	2.09
TSGKRYVYRFVCDLVNLLGFTPEE [Q15V]	2.47
TSGKRYVYRFVCDLQVLLGFTPEE [N16V]	3.2
TSGKRYVYRFVCDLQALLGFTPEE [N16A]	2.13
TSGKRYVYRFVCDLQLLLGFTPEE [N16L]	1.52
TSGKRYVYRFVCDLQYLLGFTPEE [N16Y]	1.75
TSGKRYVYRFVCDLQDLLGFTPEE [N16D]	2.17
TSGKRYVYRFVCDLQPLLGFTPEE [N16P]	2.56

Variant	protein stability index
TSGKRYVYRFVCDLQQLLGFTPEE [N16Q]	2.04
TSGKRYVYRFVCDLQGLLGFTPEE [N16G]	2.38
TSGKRYVYNFVCDLQNLLGFTPEE [R9N]	1.77
TSGKRYVYTFVCDLQNLLGFTPEE [R9T]	2.15
TSGKRYVYAFVCDLQNLLGFTPEE [R9A]	1.45
TSGKRYVYPFVCDLQNLLGFTPEE [R9P]	2.48
TSGKRYVYLFVCDLQNLLGFTPEE [R9L]	1.48
TSGKRYVYEFVCDLQNLLGFTPEE [R9E]	1.78
TSGKRYVYFFVCDLQNLLGFTPEE [R9F]	1.06
TSGKRYVYYFVCDLQNLLGFTPEE [R9Y]	1.79
TSGKRYVYIFVCDLQNLLGFTPEE [R9I]	1.68
TSGKRYVYQFVCDLQNLLGFTPEE [R9Q]	1.72
TSGKRYVYCFVCDLQNLLGFTPEE [R9C]	1.53
TSGKRYVYRFVCFLQNLLGFTPEE [D13F]	2.96
TSGKRYVYRFVCRLQNLLGFTPEE [D13R]	2.11
TSGKRYVYRFVCALQNLLGFTPEE [D13A]	2.67
TSGKRYVYRFVCSLQNLLGFTPEE [D13S]	1.57
TSGKRYVYRFVCQLQNLLGFTPEE [D13Q]	2.46
TSGKRYVYRFVCVLQNLLGFTPEE [D13V]	2.33
TSGKRYVYRFVCGLQNLLGFTPEE [D13G]	2.41
TSGKRYVYRFVCYLQNLLGFTPEE [D13Y]	2.37
TSGKRYVYRFVCPLQNLLGFTPEE [D13P]	3.25
